Values of other authors, collected in paper PMC5979509.
pKd: −log10 of the molar value.

Molecular target: Neuropilin-1 (Homo sapiens) (UniProt O14786)
Experiment: radioligand binding

Sequence of UniProt O14786 (O14786 22-923): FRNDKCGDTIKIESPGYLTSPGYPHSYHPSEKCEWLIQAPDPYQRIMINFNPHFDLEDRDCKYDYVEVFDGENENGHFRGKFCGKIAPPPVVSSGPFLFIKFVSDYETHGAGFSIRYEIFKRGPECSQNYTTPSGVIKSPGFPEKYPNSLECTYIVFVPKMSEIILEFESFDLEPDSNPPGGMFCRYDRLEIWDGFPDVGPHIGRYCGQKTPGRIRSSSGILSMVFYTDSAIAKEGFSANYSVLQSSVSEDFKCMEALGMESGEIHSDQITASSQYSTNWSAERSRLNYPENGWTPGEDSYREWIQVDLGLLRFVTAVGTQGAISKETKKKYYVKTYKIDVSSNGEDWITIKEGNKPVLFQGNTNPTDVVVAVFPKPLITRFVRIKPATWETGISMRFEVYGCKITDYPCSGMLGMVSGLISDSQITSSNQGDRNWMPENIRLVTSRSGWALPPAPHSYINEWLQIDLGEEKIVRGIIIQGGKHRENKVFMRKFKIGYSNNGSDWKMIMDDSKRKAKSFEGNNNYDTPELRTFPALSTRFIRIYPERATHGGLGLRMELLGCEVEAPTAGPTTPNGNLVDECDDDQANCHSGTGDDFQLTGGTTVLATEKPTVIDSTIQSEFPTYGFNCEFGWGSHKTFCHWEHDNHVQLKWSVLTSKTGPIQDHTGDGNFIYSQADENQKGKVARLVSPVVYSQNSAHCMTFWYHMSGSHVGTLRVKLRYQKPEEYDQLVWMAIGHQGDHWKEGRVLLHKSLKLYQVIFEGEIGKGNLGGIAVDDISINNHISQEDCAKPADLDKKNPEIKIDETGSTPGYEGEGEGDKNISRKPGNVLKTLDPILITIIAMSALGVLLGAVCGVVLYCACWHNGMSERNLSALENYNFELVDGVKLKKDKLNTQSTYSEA

## VEGF165a (from UniProt P15692)
  pKd: > 8.52
